Article PMC5992219, “HuR regulates telomerase activity through TERC methylation”

Assays:
[1] = test system: HuR (HeLa lysate) (human (HeLa)); assay: pull-down; conditions: biotin-UTP, ITC: 10 mM Tris pH 8.0, 100 mM NaCl, 25 C, UV-crosslinking EMSA: 50 mM Tris pH 7.0, 150 mM NaCl, 0.25 mg/ml tRNA, 0.025 mg/ml BSA, pull-down: 1 ug RNA …
[2] = biological target: HuR (ITC, SUMO tag removed) (UniProt Q15717 1-326); assay: ITC; ITC: 10 mM Tris pH 8.0, 100 mM NaCl, 25 C; UV-crosslinking EMSA: 50 mM Tris pH 7.0, 150 mM NaCl, 0.25 mg/ml tRNA, 0.025 mg/ml BSA, 25 C; pull-down: 1 ug RNA, 100 ug cytoplasmic extract, room temperature, 30 min; conditions: protein: recombinant; tags: N-terminal 6xHis-SUMO removed by Ulp1
HuR (ITC, SUMO tag removed), sequence (Q15717 whole entry): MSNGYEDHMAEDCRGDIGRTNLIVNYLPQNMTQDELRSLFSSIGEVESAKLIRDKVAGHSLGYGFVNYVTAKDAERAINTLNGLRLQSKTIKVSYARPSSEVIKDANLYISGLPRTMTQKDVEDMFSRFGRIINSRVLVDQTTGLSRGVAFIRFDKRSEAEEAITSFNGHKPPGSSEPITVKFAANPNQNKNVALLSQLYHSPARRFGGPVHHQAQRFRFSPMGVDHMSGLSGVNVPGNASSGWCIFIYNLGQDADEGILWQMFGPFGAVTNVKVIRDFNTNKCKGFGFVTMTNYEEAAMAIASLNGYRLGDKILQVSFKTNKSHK

Molecule	binding signal (% reduction vs WT) [1]	Kd [2]	further results
TERC U40A	70.7	–	–
TERC U100A	70.4	–	–
AUUUUUUGUCU (ssRNA) [TERC 37-47 oligo (UUUUUU motif)]	–	~24.3 nM	–
GUUUUUCUCG (ssRNA) [TERC 98-107 oligo (GUUUUUC motif)]	–	~70.4 nM	–
CUAGACUAGGACUC (ssRNA) [ITC negative control RNA]	–	–	binding result [2]: no binding
